Measured values: patent US20240043568A1 (KEYMED BIOSCIENCES, published 2024)
Where two headings read alike, the source gives them in different places.

Assays:
[1] = molecular target: T1, recombinant human GPC3 protein (human, UniProt P51654 25-563); assay: ELISA, coated antigen 1 µg/ml
T1 construct: also called human GPC3 full-length protein; recombinant GPC3 protein
Method: (§1) The high-affinity positive clone 49G8 was selected to detect binding activity to recombinant human, cynomolgus monkey, mouse GPC3 full-length proteins, and recombinant human GPC3 extracellular domain membrane-proximal proteins. 1 μg/ml of the above-mentioned protein was coated overnight at 4° C. After blocking, 49G8 chimeric antibody (initial concentration 200 nM, 3-fold gradient dilution, a total of 12 concentrations) was added and reacted for 1 hour at room temperature. The secondary antibody HPR-labeled goat anti-human IgG Fc was added. After being developed by the TMB solution, the reaction was stopped with concentrated sulfuric acid, and the absorbance was read at […]. The 49G8 antibody can bind to the full-length human and cynomolgus monkey GPC3 proteins and the membrane-proximal end of the extracellular region of human GPC3 with a slightly higher affinity than the control antibody and a weak affinity to mouse GPC3 protein (Table 3).

[2] = molecular target: T2, recombinant cynomolgus monkey GPC3 full-length protein (cynomolgus monkey, UniProt A0A2K5VK50 24-558); assay: ELISA, coated antigen 1 µg/ml
Method: as §1

[3] = molecular target: T3, recombinant GST-human GPC3 stem protein (human); assay: ELISA, coated antigen 1 µg/ml
T3 construct: also called recombinant human GPC3 extracellular domain membrane-proximal protein
T3 sequence (chain, as listed by the source limits assumed): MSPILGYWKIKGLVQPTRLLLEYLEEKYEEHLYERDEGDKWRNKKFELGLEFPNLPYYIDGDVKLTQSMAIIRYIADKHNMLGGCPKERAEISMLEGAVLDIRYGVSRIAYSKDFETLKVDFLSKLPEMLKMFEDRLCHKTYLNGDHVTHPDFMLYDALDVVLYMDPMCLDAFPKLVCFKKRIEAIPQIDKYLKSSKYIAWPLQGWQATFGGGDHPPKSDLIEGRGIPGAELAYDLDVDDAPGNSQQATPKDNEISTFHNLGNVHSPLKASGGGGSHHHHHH
Method: as §1

human GPC3 on cells = molecular target: T4, human GPC3 on cells (human, UniProt P51654 25-563); assay: flow cytometry, CHO-human GPC3 cells
T4 construct: whole, on cells; One molecule is used for both CHO-hGPC3 transfectants and GPC3+ HepG2 cells; The assay field names the cell; also called CHO-hGPC3 (clone 2B10); CHO-human GPC3
Method: The binding of the antibodies to human GPC3 stably-transfected cells was detected by FACS. CHO-human GPC3 stably-transfected cells prepared in Example 1 in the logarithmic growth phase were adjusted to 5×10⁵ cells/ml with 4% calf serum (Hyclone, SH30626.06). 100 μl/well of cell suspension was added to a 96-well U-plate, and centrifuged at 300 g for 5 min. The supernatant was discarded. 100 μL of gradient diluted antibodies (initial concentration 200 nM, 3-fold dilution, 12 gradients) was added to each well and incubated at 4° C. for 45 min. The secondary antibody Alexa Fluro647 labeled goat anti-human IgG Fc (1:300 dilution) was added at 50 μL/well, incubated on ice for 45 minutes, and detected by flow cytometry.

[4] = molecular target: T1, recombinant human GPC3 protein; assay: BLI (Octet), antibody on Protein A probe
Method: (§2) Using BLI technology (Octet), the antibody to be tested was captured on the Protein A probe. The binding capacity with human GPC3 protein (10 μg/ml as the initial concentration, 2-fold gradient, a total of 5 concentration points) was detected. The affinity constant KD was obtained according to the association and dissociation rates.

[5] = molecular target: T1, recombinant human GPC3 protein; assay: BLI (Octet), antibody on Protein A probe; remark: listed apart in the source
Method: as §2, with “rates. The 49G8 humanized antibody binds to the recombinant GPC3 protein with high affinity. The affinity data is seen in Table 6.” for “rates.”

[6] = molecular target: T1, recombinant human GPC3 protein; assay: ELISA on coated recombinant human GPC3 protein, OD450 [panel Recombinant human GPC3 protein]
[7] = molecular target: T2, recombinant cynomolgus monkey GPC3 …; assay: ELISA on coated recombinant cynomolgus monkey GPC3 protein, OD450 [panel Recombinant cynomolgus monkey GPC3 protein]

B1: 49G8 (antibody, V domains shown)
VH: QVQLQQSGAELVRPGASVKLSCKALGYTFADYEIHWVKQTPVHGLEWIGAIHPGSGGTAYNQTFEGKATLTADKSSTTAYMELSSLTSEDSAVYYCTRYYSFAYWGQGTLVTVSA
VL: DVVMTQTPLSLPVSLGDQASISCRSSQSIVHSNGNTYLEWYLQKPGQSPKLLIYKVSNRFSGVPDRFSGSGSGTDFTLKISRVEAEDLGVYFCLQVTHVPLTFGAGTKLELK
notes: Chimeric human IgG1; also called 49G8 chimeric antibody; Mab 49G8
With B1 the EC50 [1] was 0.072 nM, the EC50 [2] was 0.12 nM and the EC50 [3] was 0.074 nM. The EC50 (human GPC3 on cells) was 1.18 nM, the Kd [4] was 3.32 nM and the koff [4] was 0.000231 s⁻¹. The kon [4] was 69400 M⁻¹ s⁻¹, the Kd [5] was 1.17 nM and the koff [5] was 9.35e-05 s⁻¹. For the same binder, the kon [5] was 79700 M⁻¹ s⁻¹, the “EC50 (read off the curve)” value [6] was ~0.03 nM and the “EC50 (read off the curve)” value [7] was ~0.03 nM.
